Reference: the RNAGym collection of RNA variant scans (doi:10.1073/pnas.2313332121)

B1: TPR t1 (parent)
chain: GACCAAUCUGCCCUCAGAGCUCGAGAACAUCUUCGGAUGCAGAGGAGGCAGGCUUCGGUGGCGCGAUAGCGCCAACGUCCUCAACCUCCAAUGCAUCCCACCACAUGAUGAUGCCUGAAGAGCCUUGGUUUUUUG

Variants of: B1
Experiment: polymerase ribozyme fitness, log enrichment relative to wild type (log ratio); higher = more active; in vitro selection for triplet polymerase activity
How it was run: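 After PCR construction and transcription, each subunit's mutant library from a heterodimeric triplet polymerase ribozyme was annealed with a biotinylated primer, the partner subunit and triplets. Incubation was frozen, at −7 °C, and extended constructs were gel-excised, bound to streptavidin beads and amplified by RT-PCR, in one selection round done in triplicate. Fitness is the logarithm of a genotype's enrichment divided by that of the wild type, from inverse-variance-weighted replicate averages of Illumina-sequenced inputs and outputs. The base of the logarithm is 2, and genotypes needed ≥10 input reads and ≥1 read per output.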

| Variant | polymerase ribozyme fitness (log ratio) |
| --- | --- |
| GACCAAUCUGCCCUCAGAGCUCGAGAACAUCUUCGGAUGCAGAGGAGGCAGGCGUCGGUGGCGCGAUAGCGCCAACGUCCUCAACAUCCAAUGCAUCCCACCACAUGAUGAUGCCUGAAGAGCCUUGGGUUUUUG | -0.985 |
| GACCAAGCUGCCCUCAGAGCUCGAGAACAUCUUCGGAUGCAGAUGAGGCAGCCUUCGGUGGCGCGAUAGCGCCAACGUCCUGAACCUCCAAUGCAUCCCACCACAUGAUGAUACCUGAAGAGCUUUGGUUUUUUG | -3 |
| GCCCAAUCUGCCCUCAGAGCUCGAGAACAUCUUCGGAUGCAGAGGAGGCAGGCUUCGGUGGCGCGAUAGCGCCAACGUCCUCAACCUCCAAUGCAUCCCACCACAUGAUGAUGCCAGAAGAGCCUUGGUUUUUUG | -4.2 |
| GACCAAUCUGCCCUCAGAGCUCGAGAACAUCUUCGGAUGCAGAGGAGGCAGGCUUCGGUGGCGCGAUAGCGCCAACGUCCUCUACCUCCAAUGCAUCCCACCACAUGAUGAUGCCUGAAGAGCCAUGGUUUUUUG | -0.797 |
| GACCAAUCUGCCCUCAGAGCUCGAGAACAUCUUCGGAUGCAGAGGAGGCAGGCUUCGGUGGCGCGAUAGCGCCAACGUCCUCAACCUCCAAUGCAUCCCACCACAUGAUGAUGCCUGUAAAGCCUUGGUUUUUUG | -0.267 |
| GACCAAUCGGCCCUCAGAGCUCGAGAACAUCUUCGGAUGCAGAGGAGGCAGGCUUCGGUGGCGCGAUAGCGCCAACGUCCUCAACCUCCAAUGCAUCCCACCACAUGAUGAUGCCUAAAGAGCCUUGGUUUUUUG | 0.595 |
| GACCAAUCUGCCCUCAGAGCUCGAGAACAUCUUCGGAUGCAGAGGAGGCAGGCUUCGGUGGCGCGAUAGCGCCAACGUCCUCAACCUCCAAUUCAUCCCACCACAUGAUGAUGCCUGAAGAGCCUUGGUUUCUUG | -1.31 |
| GACUAAUCUGCCCUCAGAGCUCGAGAACAUCUUCGGAUGCAGAGGAGGCAGGCUUCGGUGGCGCGAUAGCGCCAACGUCCUCAACCACCAAUGCAUCCCACCACAUGAUGAUGCCUGAAGAGCCUUGGUUUUUUG | -1.16 |
| GACCAAUCUGCCCUCAGAGCUCGAGAACAUCUUCGGAUGCAGAGGAGGCAGGCUUCGGUGGCGCGAUAGCGUCAACGUCCUCAACAUCCGAUGCAUCCCACCACAUGAUAAUGCCUGAAGAGCCUUGGUUUUUUG | -1.38 |
| GACCAAUCUGCCCUCAGAGCUCGAGAACAUCUUCGGAUGCAGAGGAGGCAGGCUUCGGUGGCGCGAUAUCGCCAACGUCCUCAACCACCAAUGCAUCCCACCACAUGAUGAUGCCUGAAGAGCCUUGGUUUUUUG | 0.245 |
| GACCAAUCUGCCCUCAGAGCUCGAGAACAUCUUCGGAUGCAGAGGAGGCAGGCUUCUGUGGCGCGAUAGCGCCAACGUCCUCAACCUCCAAUACAUCCCACCACAUGAUCAUGCCUGAAGAGCCUUGGUUUUUUG | -5.09 |
| GACCAAUCUGCCCUCAGAGCUCGAGAACAUCUUCGGAUGCAGAGGUGGCAGGCUUCGGUGGCGCGAUAGCGCCAACGUCCUCAACCUCCAAUGCAUCCCACCACAUGAUGAUGUCUGAAGAGCCUUGGUUUUUUG | -2.76 |
| GACCAAUCUGCCCUCAGAGCUCGAGAACAUCUUCGGAUGCAGGGGAGGCAGGCUUUGGUGGCGCGAUAGCGCCAACGUCCUCAACCUCCAAUGCAUCCCACCACAUGAAGAUGCCUUAAGAGCCUUGGUUUUUUG | -5.89 |
| GACCAAUCUGCCCUCUGAGCUCGAGAACAUCCUCGGAGGCAGAGGAGGCAGGCUUCGGUGGCGCGAUAGCACCAACGUCCUCAACCUCCAAUGCAUCCCACCACAUGAUGAUGGCUGAAGUGCCUUGGUUUUAUG | -6.3 |
| GACAAAUCUGCCCUCAGAGCUCGAGAACAUCUUCGGAUGCAGAGGAGGCAGGCUUCGGUGGCGCGAUAGCGGCAACAUCCUCAACCUCCAAUGCAUCCCACCACAUGAUGAUGCCUGAAAAGCCUUGGUUUUUUG | -1.74 |
| GACCAAUCUGCCCUCAGAGCUCGAGAACAUCUUCGGAUGCAGAGGAGGCAGGCUUCGGUGGCGCGAUAGCGGCAACGUCCGCAACCUCCAAUGCAUUCCACCACAUGAUGAUGCCUGAAGAGCCUUGGUUUUUUG | -4.63 |
| GACCAAUCUGCCCUCAGAGCUCGAGAACAUCUUCGGAUGUAGAGGAGGCAGACUUCGGUUGCGCGAUAGCGCCAACGUCCUCAACCUCCAUUGCAUCCCACCACAUGAAGAUGCCUGAAGAGCCUUGGUUUUUUG | -6.64 |
| GACCAAUCUGCCCUCAGAGCUCGAGAACAUCUUCGGAUGCAGAGGAGACAGGCUUCGGUGGCGCGAUAGCGCCAACGUCCUCAAUCUCCAAUGCAUCCCACCACAUGAUGAUGCCUGAAGAGCCUUGGUUUUUUG | -0.302 |
| GACCAAUCUGCCCUCAGAGCUCGAGAACAUCUUCGAAUGCAGAGGCGGCAGGCUUCGGUGACGCGAUAGCGCCAACGUCCUCAACCUCCCAUGCAUCCCACCACAUGAUGAUGCCUGCAGAGCCUUGGUUUUUUG | -6.53 |
| GACCAAUCUGCCCUCAGAGCUCGAGAACAUCUUCGGAUGCAGAGGAGGCAGGCUUCGGUGGCGCGAUAGCGCCAACGUCCUCAACCUACAAUGCAUCCCACCACAUGAUGAUGCCUGAAGCGCCUUGGUUUUUUG | 1.66 |
| GACCAAUCUGCCCUCAGAGCUCGAGAACAUCUUCGGAUGCAGAGGAGGCAGGCUUCGGUGGCGCGAUAGAGCCAACGUCCUCAACCUCCAGUGCAUCCCACCACAUGAUGAUGCCUGAAGAGCCUUGGUUUUUUG | -2.74 |

| Variant | polymerase ribozyme fitness (log ratio) |
| --- | --- |
| GACCAAUCUGCCCUCAGAGCUCGAGAACAUCUUCGGAUGCAGAGGAGGCAGGCUUCGGUGACGCGAUAGCGCCAACGUCCUCAACCUCCAAUGCAUCCCACCACAUGUUGAUGCCUGAAUAGCCUUGGUUUUUUG | -6.8 |
| GACCAAUCUGCCCUCAGAGCUCGAGAACAUCUUCGGAUGCAGAGGUGGCAGGCUUCGGUGGCGCGAUAGCGCCAACGUCCUCAACCUCCAAUGCAUCCCACCACAUGAUGAUGCCUGAAGAGCCUUGGUUCUUUG | -1.72 |
| GACCAAUCUGCCCUCAGAGCUCGAGAACAUCUUCGGAUGCAGAGGAGGCAGGCUUGGGUGGCGCGAUAGCGCCAACGUCAUCAACCUCCAAUGCAUCCCACCACAUGAUGAUGCCUGAAGAGCCUUGGUUUUUUG | -1.38 |
| GACCAAUCUGCCCUCAGAGCUCGAGAACAUCUUCGUAUGCAGAGGAGACAGGCUUCGGUGGCGCGAUAGCGCCAACGUCCUCAACCUCCAAUGCAUCCCACCACAUGAUGAUGCCUGAAGAGCCUUGGUUUUUUG | -1.52 |
| GACCAAUCUGCCCUCAGAGCUCGAGAACAUCUUCGGAUGCAGAGGAGGCAGGCUUCGGUGUCGCGAUAGCGCCAACGUCCUCAACCUCCAAUGCAUCCCACCACAUUAUGAUGCCUGAAGAGCCUUGGUUUUUUG | -4.51 |
| GACCAAUCUGCCCUCAGAGCUCGAGAACAUCUUCGGAUGCAGAGGAGGCAGGCUUCGGUUGCGCGAUAGCGCCAACGUCCUCAACCUCCAAUGCAUCCCACCACAUGAUGAGGCCCGAAGAGCCUUGGUUUUUUG | -1.99 |
| GACCAAUCUGCCAUCAGAGCUCGAGAACAUCUUCGGAUGCAGAGGAGGCAGGCUUCGGUGGCGCGAUAGCGCCAACGUCCUCAACCUCCAAUGCAUCCCACCACAAGAUAAUGCCUGAAGAGCCUUGGUUUUUUG | -2.53 |
| GACCGAUCUGCCAUCAGAGCUCGAGAACAUCUUCGGAUGCAGAGGAGCCAGGCUUCGGUGGCGCGAUAGCGCAAACGUCCUCAACCUCCAAUGCAUCCCACCACAUGAUGAAGCCUGAACAGCCUUGGUUUUUUG | -0.914 |
| GACCAAUCUGCCCUCAGAGCUCGAGAACAUCUUCGGAUGCAGAGGAGGCAGACUUCGGUGGCGCGAUAGCGCCAACGUCCUCAACCUCCAAUGCAUCUCACCACAUGAUGAUGCCUGAAGAGCCUUGGUUUUUUG | -1.13 |
| GACCAAUCUGCCCUCAGAGCUCGAGAACAUCUUCGGAUGCAGAGGAGGCAGGCUUCGGUGGAGCGAUAGCGCCAACGUCCUCAACCUCCAGUGCAUCCCACCACAUGAUGAUGCCUGAAGAGCCUUGGUUUUUUG | -2.78 |
| GACCAAUCUGGCCUCAGAGCUCGAGAACAUCUUCGGAUGCAGAGGAGGCAGGCUUCGGUGGCGCGAUAGCCCCAACGUCCUCAACCUCCAAUGCAUCCCACCACAUGAUGAUGCCUGAAGAGCCUUGGUUUUUUG | -0.604 |
| GACCAAUCUGCCCUCAGAGCUCGAGAACAUCUUCGGAUGCAGAGGAGGCAGGCUUCGGUGGCGCGAUAGCGCCAACGUCCUCAACCUCCAAUGCAUCCCACCACAUGAUGAUGCCUCAAGAGCCUUGGUUCUUUG | -3.27 |
| GACCAAUCUGCCCUCAGAGCUCGCGAACAUCUUCGGAUGCAGAGGAGGCAGGCUUCGGUGGCCCGAUAGCGCCAACGUGCUCAACCUCCCAUGCAUCCCACCACAUGAUGAUGCCUGAAGAGCAUUGGUUUUUUG | -7.24 |
| GACCAAUCUGCCCUCAGCGCUCGAGAACAUCUUCGGAUGCAGAGGAUGCAGGCUUCGGUGGCGCGAUAGCGCCAACGUCCUCAACCUCCAAUGCAUCCCACCACAUGAUGUUGCCUGAAGAGCCUUGGGUUUUUG | -7.66 |
| GACCAAUCUGCCCUCAGAGCUCGAGAACAUCUUCGGAUGCAGAGGAGGCAGGCUUCGGUGGCGCGAUAGCGCCAACGUCCUUAACCUCCAAUGCAACCCAACACAUGAUGAUGCCUGAAGAGCCUUAGUUUUUUG | -4.42 |
| GACCAAUCUACCCUCAGAGCUCGAGAACGUCUUCGGAUGCAGAGGAGGCAGGCUUCGGUGGUGCGAUAGCGCCAACGUCCUCAACCUCCAAUGCAUCCCACCACAUGAUGAUACCUGAAGAGCCUUGGUAUUUUG | -3.56 |
| GACCAAUCUUCCCUCAGAGCUCGAGAACAUCUUCGGAUGCAGAGGAGGCAGGCUUCGGUGGCGCGAUAGCGCCAACGUCCUCAACCUCCAAUGCAUCCCACCACAUGAUGUUGCCUGAAGAGCCUUGGUUUUUUG | -3.44 |
| GACCAAUCUGCCCUCAGAGCUCGAGAACAUCUUCGGAUGCAGAGGAUGCAGGCUUCGGUGGCGCGAUAGCGCCAACGUCCUCAACCUGCAAUGCAACCCACCACAUGAUGAAGCCUGAAGAGCCUUGGUUUUUUG | -6.98 |
| GACCAAUCUGCGCUCAGAGCUCGAGAACAUCUUCGGAUGAAGAGGAGGCAGGCUUCGGUGGCGCGAUAGCGCCAACGUCCUCAACCUCCAAUGCAUCCCACCACAUGAUGAUGCCUGAAGAGCCUUGGUUUUUUG | -1.14 |
| GACCAAUCUGCCCUCCGAGCUCGAGAACAUCUUCGGAUGGAGAGGAGGCAGGCUUAGGUGGCGCGAUAGCGCCAACGUCCUCAACCUCCAAUGCAUCCCACCACAUGAUGAUGCCUGAAGAGCCUUGGUUUUUUG | -3.75 |
| GCCCAGUAUGCCCUCAGAGCUCGAGAACAUCUUCGGAUGCAGAGGAGGCAGGCUUCGGUGACGCGAUAGCGCCAACGUCCUCAACCUCCAAUGCAUCCCAGCACAUGAUGAUGCCUGAAGAGCCUUGGUUCUUUG | -1.87 |
